Each block holds one molecule with its values, some of them ahead of it. [ ]: non-standard residue; d: D form. The star is where a group is joined. DOTA = O=C(O)CN1CCN(CC(=O)O)CCN(CC(=O)*)CCN(CC(=O)O)CC1; 1Nal = N[C@@H](Cc1cccc2ccccc12)C(=O)O; 2Nal = N[C@@H](Cc1ccc2ccccc2c1)C(=O)O; NMeF = CN[C@@H](Cc1ccccc1)C(=O)O; NMeNle = CCCC[C@H](NC)C(=O)O; HYNIC = NNc1ccc(C(=O)*)cn1
Key:
[1] = target: human cholecystokinin-2 receptor (CCK2R) (human) (UniProt P32239); experiment: displacement of [125I]Tyr12-gastrin-I on A431-CCK2R cells, filter plates, 1 h RT
[2] = target: T1, human cholecystokinin-2 receptor (CCK2R) (human, UniProt P32239 1-447); experiment: cell-based or functional assay
T1 sequence (looked up): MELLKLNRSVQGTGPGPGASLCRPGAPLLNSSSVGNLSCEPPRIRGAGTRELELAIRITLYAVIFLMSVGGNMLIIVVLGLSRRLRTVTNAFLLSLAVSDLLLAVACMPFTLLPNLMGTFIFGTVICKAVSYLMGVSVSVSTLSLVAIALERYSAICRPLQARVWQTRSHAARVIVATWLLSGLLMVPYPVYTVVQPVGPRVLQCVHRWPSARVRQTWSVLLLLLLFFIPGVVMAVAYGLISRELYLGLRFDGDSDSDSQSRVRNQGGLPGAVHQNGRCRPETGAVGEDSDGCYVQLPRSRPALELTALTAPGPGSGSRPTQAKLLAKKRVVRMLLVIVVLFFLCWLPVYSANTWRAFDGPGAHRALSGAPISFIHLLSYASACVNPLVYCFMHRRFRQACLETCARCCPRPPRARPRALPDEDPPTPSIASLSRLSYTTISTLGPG

[3] = target: serum proteins (fresh human serum) (human); experiment: incubation in fresh human serum at 37 C (500 pmol/mL), Sephadex G-50 size-exclusion chromatography, gamma counting
[4] = target: T1, human cholecystokinin-2 receptor (CCK2R); experiment: displacement of [125I]Tyr12-gastrin-I on A431-CCK2R cells, filter plates, 1 h RT
Description: Affinity for CCK2R was studied in A431 human epidermoid carcinoma cells stably transfected with the plasmid pCR3.1 containing the full coding sequence for the human CCK2R (A431-CCK2R) kindly provided by Dr. Luigi Aloj (Aloj L et al., J Nucl Med 2004, 45:485-494). […] Binding assays were carried out in 96-well filter plates (MultiScreenHTS-FB, Merck Group, Darmstadt, Germany) pretreated with 10 mM TRIS/139 mM NaCl PH 7.4 (2×250 μl). For the assay a number of 200,000-400,000 A431-CCK2R cells per well was prepared in 35mM HEPES buffer pH 7.4 containing 10 mM MgCl₂, 14 μM bacitracin and 0.5% BSA (a hypotonic solution disturbing the integrity of the cell membranes). […] Incubation was interrupted by filtration of the medium and rapid rinsing with ice-cold 10 mM TRIS/139 mM NaCl PH 7.4 (2×200 μl) and the filters were counted in the gamma-counter. Half maximal inhibitory concentration (IC50) values were calculated following nonlinear regression with Origin software (Microcal Origin 6.1, Northampton, MA) and a representative assay was chosen for comparison.

Molecule: DOTA-MG11 ([1,4,7,10-tetraazacyclodocecan-1,4,7,10-tetraacetic acid^0, D-Glu^1, DesGlu^2-6] minigastrin) (peptide)
IC50 [1]: 0.9 nM

Molecule: ^111In-DOTA-MG11 (peptide)
cellular internalization after 2 h incubation on A431-CCK2R cells (% of total activity) [2]: 29%

Molecule: {DOTA}-[dE]AYGWMD[1Nal]-NH2 (also: DOTA coordinates 111In) [^111In-DOTA-MGS1 (^111In-DOTA-DGlu-Ala-Tyr-Gly-Trp-Met-Asp-1Nal-NH2)]
Percentage of radioligand bound to serum proteins after 4 h incubation [3]: 20%
Percentage of radioligand bound to serum proteins after 24 h incubation [3]: 28.8%

Molecule: {DOTA}-[dE]AYGW[NMeNle]D[NMeF]-NH2 (also: DOTA coordinates 111In) [^111In-DOTA-MGS4 (^111In-DOTA-DGlu-Ala-Tyr-Gly-Trp-(N-Me)Nle-Asp-(N-Me)Phe-NH2)]
Percentage of radioligand bound to serum proteins after 4 h incubation [3]: 8.9%
Percentage of radioligand bound to serum proteins after 24 h incubation [3]: 11.9%

Molecule: {DOTA}-[dE]AYGW[NMeNle]D[1Nal]-NH2 (also: DOTA coordinating 111In) [^111In-DOTA-MGS5]
Percentage of radioligand bound to serum proteins after 4 h incubation [3]: 41%
Percentage of radioligand bound to serum proteins after 24 h incubation [3]: 44.3%
cell uptake after 2 h incubation on A431-CCK2R cells (% of total activity) [2]: 68%

Molecule: {DOTA}-[dE]AYGW[NMeNle]D[1Nal]-NH2 (also: DOTA coordinating 68Ga) [^68Ga-DOTA-MGS5]
cell uptake after 2 h incubation on A431-CCK2R cells (% of total activity) [2]: 54%

Molecule: {HYNIC}-[dE]AYGW[NMeNle]D[1Nal]-NH2 (also: HYNIC coordinating 99mTc, co-ligand not given here) [^99mTc-HYNIC-MGS5]
cell uptake after 2 h incubation on A431-CCK2R cells (% of total activity) [2]: 63%

Molecule: {DOTA}-[dE]AYPW[NMeNle]D[1Nal]-NH2 (also: DOTA coordinating 68Ga) [^68Ga-DOTA-MGS12]
cellular internalization after 2 h incubation on A431-CCK2R cells (% of total activity) [2]: ~40%

B1: DOTA-MGS8 (DOTA-DGlu-Pro-Tyr-Gly-Trp-(N-Me)Nle-Asp-1Nal-NH2) (peptide)
peptide: {DOTA}-[dE]PYGW[NMeNle]D[1Nal]-NH2
SMILES: CCCC[C@@H](C(=O)N[C@@H](CC(=O)O)C(=O)N[C@@H](Cc1cccc2ccccc12)C(N)=O)N(C)C(=O)[C@H](Cc1c[nH]c2ccccc12)NC(=O)CNC(=O)[C@H](Cc1ccc(O)cc1)NC(=O)[C@@H]1CCCN1C(=O)[C@@H](CCC(=O)O)NC(=O)CN1CCN(CC(=O)O)CCN(CC(=O)O)CCN(CC(=O)O)CC1
IC50 [4]: 1.6 nM

B2: DOTA-MGS9 (DOTA-DLys-Ala-Tyr-Gly-Trp-(N-Me)Nle-Asp-1Nal-NH2) (peptide)
peptide: {DOTA}-[dK]AYGW[NMeNle]D[1Nal]-NH2
SMILES: CCCC[C@@H](C(=O)N[C@@H](CC(=O)O)C(=O)N[C@@H](Cc1cccc2ccccc12)C(N)=O)N(C)C(=O)[C@H](Cc1c[nH]c2ccccc12)NC(=O)CNC(=O)[C@H](Cc1ccc(O)cc1)NC(=O)[C@H](C)NC(=O)[C@@H](CCCCN)NC(=O)CN1CCN(CC(=O)O)CCN(CC(=O)O)CCN(CC(=O)O)CC1
IC50 [4]: 1.8 nM

B3: DOTA-MGS10 (DOTA-DGlu-Tyr-Pro-Gly-Trp-(N-Me)Nle-Asp-1Nal-NH2) (peptide)
peptide: {DOTA}-[dE]YPGW[NMeNle]D[1Nal]-NH2
SMILES: CCCC[C@@H](C(=O)N[C@@H](CC(=O)O)C(=O)N[C@@H](Cc1cccc2ccccc12)C(N)=O)N(C)C(=O)[C@H](Cc1c[nH]c2ccccc12)NC(=O)CNC(=O)[C@@H]1CCCN1C(=O)[C@H](Cc1ccc(O)cc1)NC(=O)[C@@H](CCC(=O)O)NC(=O)CN1CCN(CC(=O)O)CCN(CC(=O)O)CCN(CC(=O)O)CC1
IC50 [4]: 0.9 nM

Molecule: {DOTA}-[dE]AYGWMD[1Nal]-NH2 [DOTA-MGS1 (DOTA-DGlu-Ala-Tyr-Gly-Trp-Met-Asp-1Nal-NH2)]
IC50 [4]: 1.9 nM

B4: DOTA-MGS4 (DOTA-DGlu-Ala-Tyr-Gly-Trp-(N-Me)Nle-Asp-(N-Me)Phe-NH2) (peptide)
peptide: {DOTA}-[dE]AYGW[NMeNle]D[NMeF]-NH2
SMILES: CCCC[C@@H](C(=O)N[C@@H](CC(=O)O)C(=O)N(C)[C@@H](Cc1ccccc1)C(N)=O)N(C)C(=O)[C@H](Cc1c[nH]c2ccccc12)NC(=O)CNC(=O)[C@H](Cc1ccc(O)cc1)NC(=O)[C@H](C)NC(=O)[C@@H](CCC(=O)O)NC(=O)CN1CCN(CC(=O)O)CCN(CC(=O)O)CCN(CC(=O)O)CC1
IC50 [4]: 1.2 nM

Molecule: {HYNIC}-[dE]AYGW[NMeNle]D[1Nal]-NH2 [HYNIC-MGS5 (HYNIC-DGlu-Ala-Tyr-Gly-Trp-(N-Me)Nle-Asp-1Nal-NH2)]
IC50 [4]: 6 nM

B5: DOTA-MGS5-2 (DOTA-DGlu-Ala-Tyr-Gly-Trp-(N-Me)Nle-Asp-2Nal-NH2) (peptide)
peptide: {DOTA}-[dE]AYGW[NMeNle]D[2Nal]-NH2
SMILES: CCCC[C@@H](C(=O)N[C@@H](CC(=O)O)C(=O)N[C@@H](Cc1ccc2ccccc2c1)C(N)=O)N(C)C(=O)[C@H](Cc1c[nH]c2ccccc12)NC(=O)CNC(=O)[C@H](Cc1ccc(O)cc1)NC(=O)[C@H](C)NC(=O)[C@@H](CCC(=O)O)NC(=O)CN1CCN(CC(=O)O)CCN(CC(=O)O)CCN(CC(=O)O)CC1
IC50 [4]: 1.6 nM

The remaining lines, values ahead:

Percentage of radioligand bound to serum proteins after 4 h incubation [3]: 31.7%
Percentage of radioligand bound to serum proteins after 24 h incubation [3]: 34.6%
cell uptake after 2 h incubation on A431-CCK2R cells (% of total activity) [2]: 45%
Molecule: {DOTA}-[dE]AYGW[NMeNle]D[2Nal]-NH2 (also: DOTA coordinating 111In) [^111In-DOTA-MGS5-2]

Percentage of radioligand bound to serum proteins after 4 h incubation [3]: 44.5%
Percentage of radioligand bound to serum proteins after 24 h incubation [3]: 52.8%
Molecule: {DOTA}-[dE]PYGW[NMeNle]D[1Nal]-NH2 (also: DOTA coordinates 111In) [^111In-DOTA-MGS8]

Percentage of radioligand bound to serum proteins after 4 h incubation [3]: 26.6%
Percentage of radioligand bound to serum proteins after 24 h incubation [3]: 27.8%
cell uptake after 2 h incubation on A431-CCK2R cells (% of total activity) [2]: 37%
Molecule: {DOTA}-[dK]AYGW[NMeNle]D[1Nal]-NH2 (also: DOTA coordinating 111In) [^111In-DOTA-MGS9]

Percentage of radioligand bound to serum proteins after 4 h incubation [3]: 56.7%
Percentage of radioligand bound to serum proteins after 24 h incubation [3]: 53.4%
Molecule: {DOTA}-[dE]YPGW[NMeNle]D[1Nal]-NH2 (also: DOTA coordinates 111In) [^111In-DOTA-MGS10]

Percentage of radioligand bound to serum proteins after 4 h incubation [3]: 41.2%
Percentage of radioligand bound to serum proteins after 24 h incubation [3]: 45.9%
Molecule: {DOTA}-[dE]AYPW[NMeNle]D[1Nal]-NH2 (also: DOTA coordinates 111In) [^111In-DOTA-MGS12]

cell uptake after 2 h incubation on A431-CCK2R cells (% of total activity) [2]: 63%
Molecule: {DOTA}-[dE]AYGW[NMeNle]D[1Nal]-NH2 (also: DOTA coordinating 177Lu) [^177Lu-DOTA-MGS5]

cellular internalization after 2 h incubation on A431-CCK2R cells (% of total activity) [2]: > 50%
Molecule: {DOTA}-[dE]YPGW[NMeNle]D[1Nal]-NH2 (also: DOTA coordinating 177Lu) [^177Lu-DOTA-MGS10]

cell uptake after 2 h incubation on A431-CCK2R cells (% of total activity) [2]: < 30%
Molecule: {DOTA}-[dE][dE][dE][dE][dE][dE]AYGWMDF-NH2 (also: DOTA coordinating 177Lu) [^177Lu-PP-F11]

cellular internalization after 2 h incubation on A431-CCK2R cells (% of total activity) [2]: < 24%
Molecule: {DOTA}-[dE][dE][dE][dE][dE][dE]AYGWMDF-NH2 (also: DOTA coordinating 111In) [^111In-PP-F11]

From patent US20250019402A1 (MEDIZINISCHE UNIVERSITAT INNSBRUCK, published 2025)
